From patent US20190022241A1 (AbbVie / Abbott, published 2019)

Tests used:
[1] = molecular target: T1, SEZ6 Sushi Domain 2 (amino acids 511-572) on yeast (human, UniProt Q53EL9 530-591); experiment: yeast display, flow cytometry;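 note: antibody binding to individual SEZ6 domains displayed on yeast, measured by flow cytometry, antibody at 50 nM purified or hybridoma supernatant diluted 1:2, 90 min on ice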
T1 construct: yeast display
T1 sequence: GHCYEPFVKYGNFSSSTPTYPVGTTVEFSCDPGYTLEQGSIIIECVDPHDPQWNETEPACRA

[2] = molecular target: T2, SEZ6 Sushi Domain 3 (amino acids 690-748) on yeast (human, UniProt Q53EL9 709-767); experiment: yeast display, flow cytometry;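 note: antibody binding to individual SEZ6 domains displayed on yeast, measured by flow cytometry, antibody at 50 nM purified or hybridoma supernatant diluted 1:2, 90 min on ice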
T2 construct: yeast display

[3] = molecular target: T3, SEZ6 Sushi Domain 4 (amino acids 750-813) on yeast (human, UniProt Q53EL9 769-832); experiment: yeast display, flow cytometry;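 note: antibody binding to individual SEZ6 domains displayed on yeast, measured by flow cytometry, antibody at 50 nM purified or hybridoma supernatant diluted 1:2, 90 min on ice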
T3 construct: yeast display

hSEZ6-ECD-His = molecular target: T4, hSEZ6-ECD-His (human, UniProt Q53EL9 20-925); experiment: immunohistochemistry, signal competed by soluble antigen
T4 construct: the whole entry is named; also called recombinant SEZ6-His; human recombinant SEZ6-His

[4] = molecular target: T5, human SEZ6 on HEK-293T cells (human, UniProt Q53EL9 20-994); experiment: immunohistochemistry
T5 construct: also called h293T-HuSEZ6

[5] = molecular target: T6, SEZ6 Sushi Domain 5 (amino acids 817-878) on yeast (human, UniProt Q53EL9 836-897); experiment: yeast display, flow cytometry;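 note: antibody binding to individual SEZ6 domains displayed on yeast, measured by flow cytometry, antibody at 50 nM purified or hybridoma supernatant diluted 1:2, 90 min on ice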
T6 construct: yeast display

B1: SC17.90 (antibody, V domains shown)
VL: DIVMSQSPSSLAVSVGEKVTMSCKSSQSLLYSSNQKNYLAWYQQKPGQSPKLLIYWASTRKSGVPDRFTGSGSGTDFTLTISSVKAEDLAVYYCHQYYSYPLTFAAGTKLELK
VH: QVQLQQPGSVLVRPGASVKLSCKASGYTFTSYWMHWVKQRPGQGLEWIGEIHPNNGSTNYNEKFKGKATLTVDTSSSTAYVDLSSLTSEDSAVYYCARWTLFTYWGQGTLVTVSA
notes: murine mAb; also called SC17.155 (duplicate)
Does B1 bind [1]?
Result: binds

B2: SC17.95 (antibody, V domains shown)
VH: EVELQQSGPELVKPGASVKISCKTSGNTYTEYTMQWVKLSHGKSLEWIGGINPNNGITSYNQKFKGKATLTVDKSSSTAYMELRSLKSEDSAVYYCARAGLGNYVWAMDYWGQGASVTVSS
VL: DIQMTQTTSSLSASLGDRVTISCSASQGINNYLNWYQQKPDGTVTLLIYYTSSLHSGVPSRFSGSGSGTDYSLTISNLEPEDIATYYCQQYSKLPWTFGGGTKLEIK
notes: murine mAb
Does B2 bind [2]?
Result: binds

B3: SC17.140 (antibody, V domains shown)
VH: EVQLQQSGPELMKPGASVKMSCKASGYTFTDYNMHWVKQNQGKSLEWIGEINPNTGGTGYNQKFKGKATLTVDKFSSTAFIELRSLTSEDSAIYYCTRGGYDHYWYFDVWGAGTTVTVSS
VL: QIVLTQSPAIMSASPGEKVTMTCSASSSVSYMHWYQQKSGTSPKRWIYDTSKLASGVPARFSGSGSGTSYSLTISSMEAEDAATYYCQQWSSTPPTFGSGTKLEIK
notes: murine mAb
Does B3 bind [3]?
Result: binds

Does B3 bind (hSEZ6-ECD-His)?
Result: binds

Does B3 bind [4]?
Result: binds

B4: SC17.74 (antibody, V domains shown)
VH: QVQLKQSGPGLVAPSQSLSITCTVSGFSLTSYGVDWVRQSPGKGLEWLGVIWGGGSTNYNSALKSRLSITKDNSKSQVFLKMNSLQTDDTAMYYCASGDYDGSLWFAYWGQGTLVTVSA
VL: DIQMTQSSSYLSVSLGGRVTITCKASDHINNWLAWYQQKPGNAPRLLISGATSLETGVPSRFSGSGSGKDYTLSITSLQTEDVATYYCQQYWSTPPTFGAGTKLELK
notes: murine mAb
Does B4 bind [5]?
Result: binds
